Assay results reported in patent US20240076371A1, “COMPOSITIONS AND METHODS FOR TREATING OSTEOARTHRITIS, RHEUMATOID ARTHRITIS, AND JOINT AND TENDON DISORDERS” (BOARD OF REGENTS, THE UNIVERSITY OF TEXAS SYSTEM, priority 2021, published 2024).
Like-named read-outs stand apart in the source and are kept apart here.

Key:
[1] = tested on: post-traumatic OA model (DMM) in male C57BL/6 mice; type: in vivo, mouse
Procedure: Materials and Methods. Animals and surgery model. The mice used were of C57BL/6 background. The mice were housed in a temperature-controlled room with a light/dark cycle of 12 hours under specific pathogen-free conditions. Food and water were provided ad libitum. Destabilization of the medial meniscus (DMM) surgery was performed on the right knee joint of mice (Glasson S S, et al. Osteoarthritis and cartilage. 2007; 15(9):1061-9). Briefly, a 3 mm longitudinal incision over the distal patella to proximal tibial plateau was made. The joint capsule immediately medial to the patellar tendon was incised with a #15 blade and the joint capsule opened with micro-iris scissors. Blunt dissection of the fat pad over the intercondylar area was then performed to expose the intercondylar region, providing visualization of the meniscotibial ligament of the medial meniscus. Mild hemorrhage from the fat pad upon blunt dissection was controlled by pressure from absorption spears. Sectioning of medial meniscotibial ligament with micro-surgical knife, with the blade directed proximo-laterally, gave destabilization of the medial meniscus (DMM). Sham surgery was performed with the ligament visualized but not transected. Histology. At 8 weeks after the induction of osteoarthritis (OA), the femur and tibia bones isolated from DMM and sham operated mice were fixed in 4% paraformaldehyde for 2 days prior to decalcification with 10% EDTA (pH 7.5) for 3 weeks. The samples were embedded in paraffin, and 5-μm-thick sections were collected on glass slides. Sections were deparaffinized in xylene, followed by a graded series of alcohol washes. To determine the extent of cartilage deterioration, sections were stained with Safranin O/Fast Green. OARSI scoring was performed to evaluate knee joint articular cartilage destruction (Glasson S S, et al. Osteoarthritis and cartilage. 2010; 18 Suppl 3:S17-23). Specifically, both medial femoral condyle and medial tibial plateau were analyzed through three-level sections of the joints and the severity of OA is expressed as the averaged and summed scores for the entire joint. Results. Inhibition of Cx43 hemichannel ameliorates histopathological changes of OA. To investigate the function of Cx43 hemichannel in OA progression, post-traumatic OA model was induced in male C57BL/6 mice by surgically destabilization of the medial meniscus (DMM). The anti-Cx43 hemichannel blocking antibody (M1 antibody) or saline was administered by intraperitoneal injection twice at 30 minutes and four weeks post-surgery (FIG. 1A). Histological staining of Safranin O/Fast Green was utilized to visualize the severity of articular cartilage damage, which was determined using the Osteoarthritis Research Society International (OARSI) scoring system (Glasson S S, et al. Osteoarthritis and cartilage. 2010; 18 Suppl 3:S17-23) by two blinded observers (FIGS. 1B-D). […] Moreover, synovium hyperplasia was quantified by the synovitis score ([…], et al. Pathology, research and practice. 2002; 198(5):317-25; and Huesa C, et al. Annals of the rheumatic diseases. 2016; 75(11):1989-97).

[2] = tested on: knee joint region (synovium); experiment: In vivo antibody binding pattern in the knee joint (immunofluorescence); design: species or system mouse
Excerpt: Immunofluorescent staining. The isolated femur and tibia bones were fixed in 4% paraformaldehyde for 2 days prior to decalcification with 10% EDTA (pH 7.5) for 3 weeks, and then dehydrated in 30% sucrose/PBS for 3 days. Samples were embedded in the Tissue-Tek CRYO OCT compound (Thermo Fisher Scientific, Pittsburgh, PA, USA), and 12-μm-thick sections were collected on glass slides. Sections were blocked and permeabilized with 2% goat serum, 2% fish skin gelatin, 0.025% Triton X-100 and 1% bovine serum albumin in PBS. The sections were incubated overnight at 4° C. with affinity-purified antibodies against Cx43 (CT) (1:100) (Cherian P P, et al. The Journal of biological chemistry. 2003; 278(44):43146-56), for 1 hour with the appropriate secondary antibody. Slides were mounted using Vectashield mounting medium (H-1000, Vector Lab). Confocal fluorescence imaging was performed using a confocal laser scanning microscope (LSM770, Carl Zeiss, Oberkochen, Germany).
M1 antibody binds to synovium and inhibits hemichannel opening in OA. Due to the dense nature of cartilage and large size of antibodies, a widely held perception is that antibodies are unable to penetrate the cartilage matrix. To determine the antibody binding pattern in the knee joint region, M1 antibody (25 mg/kg) with human IgG epitope or saline was intraperitoneally (i.p.) injected at 30 mins after DMM surgery. As shown in the diagram (FIG. 8A), mice were euthanized and perfused before isolation of hindlimbs at one or two weeks after injection. Frozen tissue sections were prepared and immuno-labeled with Alexa Fluor 594-conjugated anti-human IgG secondary antibody. […] The synovium of joints comprises macrophage-like type A cells, which are responsible for phagocytosing synovial fluid, and fibroblast-like type B cells, which produce hyaluronic acid and mucin to nourish and mechanically protect, respectively, the underlying articular cartilage (Donahue H J, et al. Nature reviews Rheumatology. 2017; 14(1):42-51). […]

B1: M1 antibody: antibody with variable heavy chain SEQ ID NO: 58 and variable light chain SEQ ID NO: 60; inhibits or blocks opening of Cx43 hemichannel (antibody, V domains shown)
VH: EVQLQQPGAELVKPGASVKLSCKASGYTFTSYYMYWVKQRPGQGLEWIGGINPSNGGTNFNEKFKNKATLTVDKSSSTAYMQLSSLTSEDSAVYYCTREGNPYYTMNYWGQGTSVTVSS
VL: DIVMTQSPSSLSVSAGEKVTMSCKSSQSLLNSGNQKTYLAWYQQKPGQPPKLLIYGASTRESGVPDRFTGSGSGTDFTLTISSVQAEDLAVYYCQNDHSYPFTFGSGTKLEIK
With B1 the “OARSI scores in medial tibial plateau and medial femoral condyle” value ([1]; DMM mice, i.p. twice at 30 minutes and four weeks post-surgery, 8 weeks after DMM, vs saline) was “significant reduction”, the “Summed OARSI score of MTP and MFC (structural integrity of the articular cartilage)” value ([1]; DMM mice, i.p. twice, 8 weeks after DMM, three-level sections) was “significantly improved structural integrity” and the “pathologic changes in the articular cartilage of sham-operated mice” value ([1]; mouse, in vivo, ip) was “did not exhibit pathologic changes”. For the same molecule, the “OARSI scores in medial tibial plateau and medial femoral condyle” value ([1]; single i.p. injection at 30 minutes post-surgery, eight weeks after DMM) was “significant reduction”, the “proteoglycan loss and cartilage erosion (Safranin O/Fast Green)” value ([1]; single i.p. injection at 30 minutes post-surgery, eight weeks after DMM, vs saline) was “less proteoglycan loss and cartilage erosion” and the “antibody binding site in the knee joint region” value ([2]; 25 mg/kg i.p. at 30 mins after DMM surgery, anti-human IgG secondary antibody) was “primarily localized in the synovium region”. For the same molecule, the “antibody signal after administration” value ([2]; 25 mg/kg i.p. at 30 mins after DMM surgery, one or two weeks after injection) was “detectable at both one and two weeks” and the “time after administration at which antibody signals were detected” value ([2]; synovium region) was “more than 2 weeks”.
